# Tests used:
# [1] = Tyr inhibition assay of ADH activity (arogenate substrate); type: biochemical; settings: Tyr up to 8 mM
# Procedure: Arogenate was prepared by enzymatic conversion of prephenate (Sigma-Aldrich) as previously reported^56. For Tyr inhibition assays, Tyr was dissolved in a slightly basic solution (0.025 N NaOH) due to solubility issues, thus the concentration of lysis buffer was increased to 500 mM HEPES final concentration to buffer against the changes by addition of Tyr in the reaction. Reactions containing varying amounts of Tyr (10 μM-8 mM) with 0.5 mM NADP^+ and either 1 mM arogenate or 0.8 mM prephenate were monitored as above.
# [2] = PDH assay: steady-state kinetics of purified recombinant plant enzymes with prephenate; type: biochemical; settings: prephenate versus arogenate, NADP+ cofactor
# Text: As used herein, a polypeptide may “have greater arogenate dehydrogenase activity than prephenate dehydrogenase activity” or “have greater prephenate dehydrogenase activity than arogenate dehydrogenase activity” when the steady-state kinetic parameters (kcat/Km (mM^−1s^−1)) for arogenate dehydrogenase activity are greater than the steady-state parameters (kcat/Km (mM^−1s^−1)) for prephenate dehydrogenase activity or when the steady-state kinetic parameters (kcat/Km (mM^−1s^−1)) for prephenate dehydrogenase activity are greater than the steady-state parameters (kcat/Km (mM^−1s^−1)) for arogenate dehydrogenase activity. Steady-state kinetic parameters may be measured using techniques similar to those described by the inventors in the Examples. Briefly, kinetic parameters of purified polypeptides can be determined from assays conducted at varying arogenate and prephenate concentrations. Standard assay conditions include 25 mM HEPES pH 7.6, 50 mM KCl and 10% (v/v) ethylene glycol, and 0.5 mM NADP^+ with varied substrate, concentrations. Reactions can be initiated by the addition of the polypeptide and incubated at 37° C. monitored every 10-15 seconds at A340nm using a microplate reader. Kinetic parameters may be determined by fitting initial velocity data to the Michaelis-Menten equation using the Origin software.
# Kinetic parameters of purified recombinant proteins were determined from assays conducted at varying arogenate (19.5 μM-5 mM) and prephenate concentration (23.4 μM-6 mM). Standard assay conditions were 25 mM HEPES pH 7.6, 50 mM KCl and 10% (v/v) ethylene glycol, and 0.5 mM NADP^+ with varied substrate, concentrations. Reactions were initiated by addition of enzyme and incubated at 37° C. monitored every 10-15 seconds at […] using a microplate reader (Tecan Genios). Kinetic parameters were determined by fitting initial velocity data to the Michaelis-Menten equation using the Origin software (OriginLab).
molecule,measurement,setting,value
"AtADH2 D241N: site-directed mutant of Arabidopsis canonical ADH, Asp241 to Asn (protein, Synthetic: AtADH2 D241N, site-directed mutant of Arabidopsis canonical ADH, Asp241 to Asn) MLLHFSPAKPLISPPNLRRNSPTFLISPPRSLRIRAIDAAQIFDYETQLKSEYRKSSALKIAVLGFGNFGQFLSKTLIRHGHDLITHSRSDYSDAANSIGARFFDNPHDLCEQHPDVVLLCTSILSTESVLRSFPFQRLRRSTLFVDVLSVKEFPKALFIKYLPKEFDILCTHPMFGPESGKHSWSGLPFVYDKVRIGDAASRQERCEKFLRIFENEGCKMVEMSCEKHDYYAAGSQFVTHTMGRVLEKYGVESSPINTKGYETLLDLVENTSSNSFELFYGLFMYNPNALEQLERLDMAFESVKKELFGRLHQQYRKQMFGGEVQSPKKTEQKLLNDGGVVPMNDISSSSSSSSSSS",feedback inhibition by Tyr (in words),[1],significantly less sensitive to Tyr inhibition than the respective wild-type enzymes
same,substrate specificity: PDH versus ADH activity (in words),[2],gained PDH activity at the expense of ADH activity

# From patent publication US12134788B2, “Engineered prephenate dehydrogenases and arogenate dehydrogenases and methods of using the same” (Wisconsin Alumni Research Foundation, priority 2017, dated 2024)
